Laboratory results as given in patent publication US20230134571A1 (INTERNATIONAL AIDS VACCINE INITIATIVE, published 2023).
Residue numbers refer to the chain shown, from its start.

B1: ePGDM13 (antibody, V domains shown)
VH: QAQLVQSGPEVRKPGTSVKVSCKNPGNTLTTYDLHWVRQVPGQGLQWMGWISHEGDKKVIVERFKAKVTIDWDRSTNTAYLQLSGLTSEDTAVYYCAKGSKHRLRDYALYDEDGALNWAVDVDYLANLEFWGQGTAVTVSS
VL: DIVLTQSPLSLSVTPGESASISCKSSHSLQHGDRNNYLAWYVQKPGRSPQLLLDLASERASGVPDRFSGSGSEKDFTLKISRVETEDVGTYYCMQGRESPWTFGQGTKVDIK
B2: PGDM1400 (antibody, V domains shown)
VH: B1 VH with A2V, Q3H, V5T, N24A, T30K, Q39S, E89G, E112D, A126S
VL: B1 VL with I2F, L9H, Q30I, L53I, D54Y, E58S, E73D
B3: ePGDM9 (antibody, V domains shown)
VH: B1 VH
VL: B1 VL with H27Q, Q30I, L53I, E73R
B4: ePGDM5 (antibody, V domains shown)
VH: B1 VH
VL: B1 VL with I2F, S26D, L53I, E73R, S81D, T85A

What follows are binders tested against HIV Env of isolate 6811.v7.c18 (clade CD) (HIV) (assay: cell-based or functional assay).

Binder	IC50 (µg/ml) with constrains
B1	> 100 µg/mL
B2	> 100 µg/mL
B3	> 100 µg/mL
B4	> 100 µg/mL

The binders below were run against HIV Env of isolate 89-F1_2_25 (clade CD) (HIV) (assay: cell-based or functional assay).

Binder	IC50 (µg/ml) with constrains
B1	0.001 µg/mL
B2	0.003 µg/mL
B3	0.001 µg/mL
B4	0.001 µg/mL

The binders below were run against HIV Env of isolate X1193_C1 (clade G) (HIV) (assay: cell-based or functional assay).

Binder	IC50 (µg/ml) with constrains
B1	0.095 µg/mL
B2	0.094 µg/mL
B3	0.039 µg/mL
B4	0.039 µg/mL

These binders were tested against HIV Env of isolate X1632_S2_B10 (clade G) (HIV) (assay: cell-based or functional assay).

Binder	IC50 (µg/ml) with constrains
B1	0.003 µg/mL
B2	0.034 µg/mL
B3	0.003 µg/mL
B4	0.003 µg/mL

What follows are binders tested against HIV Env of isolate Q259.d2.17 (clade A) (HIV) (assay: cell-based or functional assay).

Binder	IC50 (µg/ml) with constrains	IC80 (µg/ml) with constrains
B1	0.037 µg/mL	0.15 µg/mL
B2	0.068 µg/mL	0.271 µg/mL
B3	0.012 µg/mL	0.048 µg/mL
B4	0.013 µg/mL	0.051 µg/mL

The binders below were run against HIV Env of isolate 3103.v3.c10 (clade ACD) (HIV) (assay: cell-based or functional assay).

Binder	IC50 (µg/ml) with constrains	IC80 (µg/ml) with constrains
B1	0.09 µg/mL	0.36 µg/mL
B2	0.223 µg/mL	0.892 µg/mL
B3	0.073 µg/mL	0.29 µg/mL
B4	0.063 µg/mL	0.254 µg/mL

Each binder was assayed against HIV Env of isolate C1080.c03 (clade AE) (HIV) (assay: cell-based or functional assay).

Binder	IC50 (µg/ml) with constrains	IC80 (µg/ml) with constrains
B1	0.001 µg/mL	0.003 µg/mL
B2	0.001 µg/mL	0.005 µg/mL
B3	0.001 µg/mL	0.004 µg/mL
B4	0.003 µg/mL	0.011 µg/mL

What follows are binders tested against HIV Env of isolate C3347.c11 (clade AE) (HIV) (assay: cell-based or functional assay).

Binder	IC50 (µg/ml) with constrains	IC80 (µg/ml) with constrains
B1	0.009 µg/mL	0.037 µg/mL
B2	0.015 µg/mL	0.061 µg/mL
B3	0.003 µg/mL	0.011 µg/mL
B4	0.005 µg/mL	0.021 µg/mL

What follows are binders tested against HIV Env of isolate CNE8 (clade AE) (HIV) (assay: cell-based or functional assay).

Binder	IC50 (µg/ml) with constrains	IC80 (µg/ml) with constrains
B1	0.005 µg/mL	0.022 µg/mL
B2	0.001 µg/mL	0.003 µg/mL
B3	0.001 µg/mL	0.002 µg/mL
B4	0.001 µg/mL	0.003 µg/mL

These binders were tested against HIV Env of isolate R1166.c01 (clade AE) (HIV) (assay: cell-based or functional assay).

Binder	IC50 (µg/ml) with constrains	IC80 (µg/ml) with constrains
B1	0.194 µg/mL	0.777 µg/mL
B2	1.48 µg/mL	5.92 µg/mL
B3	0.215 µg/mL	0.86 µg/mL
B4	0.166 µg/mL	0.664 µg/mL

The binders below were run against HIV Env of isolate R2184.c04 (clade AE) (HIV) (assay: cell-based or functional assay).

Binder	IC50 (µg/ml) with constrains	IC80 (µg/ml) with constrains
B1	0.005 µg/mL	0.019 µg/mL
B2	0.006 µg/mL	0.022 µg/mL
B3	0.003 µg/mL	0.011 µg/mL
B4	0.004 µg/mL	0.017 µg/mL

What follows are binders tested against HIV Env of isolate T255-34 (clade AG) (HIV) (assay: cell-based or functional assay).

Binder	IC50 (µg/ml) with constrains	IC80 (µg/ml) with constrains
B1	0.007 µg/mL	0.029 µg/mL
B2	0.046 µg/mL	0.182 µg/mL
B3	0.002 µg/mL	0.008 µg/mL
B4	0.018 µg/mL	0.071 µg/mL

What follows are binders tested against HIV Env of isolate T263-8 (clade AG) (HIV) (assay: cell-based or functional assay).

Binder	IC50 (µg/ml) with constrains
B1	0.025 µg/mL
B2	0.02 µg/mL
B3	0.015 µg/mL
B4	0.019 µg/mL

These binders were tested against HIV Env of isolate 1012_11_TC21_3257 (clade B) (HIV) (assay: cell-based or functional assay).

Binder	IC50 (µg/ml) with constrains
B1	0.065 µg/mL
B2	0.076 µg/mL
B3	0.042 µg/mL
B4	0.076 µg/mL

Each binder was assayed against HIV Env of isolate WITO4160.33 (clade B) (HIV) (assay: cell-based or functional assay).

Binder	IC50 (µg/ml) with constrains
B1	0.003 µg/mL
B2	0.003 µg/mL
B3	0.002 µg/mL
B4	0.004 µg/mL

Each binder was assayed against HIV Env of isolate CNE20 (clade BC) (HIV) (assay: cell-based or functional assay).

Binder	IC50 (µg/ml) with constrains
B1	0.004 µg/mL
B2	0.005 µg/mL
B3	0.002 µg/mL
B4	0.004 µg/mL

These binders were tested against HIV Env of isolate CNE30 (clade BC) (HIV) (assay: cell-based or functional assay).

Binder	IC50 (µg/ml) with constrains
B1	> 100 µg/mL
B2	> 100 µg/mL
B3	> 100 µg/mL
B4	> 100 µg/mL

Each binder was assayed against HIV Env of isolate CNE53 (clade BC) (HIV) (assay: cell-based or functional assay).

Binder	IC50 (µg/ml) with constrains
B1	0.015 µg/mL
B2	0.026 µg/mL
B3	0.007 µg/mL
B4	0.02 µg/mL

These binders were tested against HIV Env of isolate 1394C9G1(Rev-) (clade C) (HIV) (assay: cell-based or functional assay).

Binder	IC50 (µg/ml) with constrains
B1	0.003 µg/mL
B2	0.003 µg/mL
B3	0.001 µg/mL
B4	0.002 µg/mL

The binders below were run against HIV Env of isolate 246FC1G (clade C) (HIV) (assay: cell-based or functional assay).

Binder	IC50 (µg/ml) with constrains
B1	> 100 µg/mL
B2	> 100 µg/mL
B3	> 100 µg/mL
B4	> 100 µg/mL

What follows are binders tested against HIV Env of isolate BF1266.431a (clade C) (HIV) (assay: cell-based or functional assay).

Binder	IC50 (µg/ml) with constrains
B1	0.004 µg/mL
B2	0.006 µg/mL
B3	0.002 µg/mL
B4	0.004 µg/mL

Each binder was assayed against HIV Env of isolate Ce1176_A3 (clade C) (HIV) (assay: cell-based or functional assay).

Binder	IC50 (µg/ml) with constrains
B1	0.031 µg/mL
B2	0.526 µg/mL
B3	0.022 µg/mL
B4	0.022 µg/mL

Each binder was assayed against HIV Env of isolate Ce2010_F5 (clade C) (HIV) (assay: cell-based or functional assay).

Binder	IC50 (µg/ml) with constrains
B1	> 100 µg/mL
B2	> 100 µg/mL
B3	> 100 µg/mL
B4	> 100 µg/mL

The binders below were run against HIV Env of isolate HIV-001428-2.42 (clade C) (HIV) (assay: cell-based or functional assay).

Binder	IC50 (µg/ml) with constrains
B1	0.003 µg/mL
B2	0.014 µg/mL
B3	0.002 µg/mL
B4	0.003 µg/mL

Each binder was assayed against HIV Env of isolate HIV-16845-2.22 (clade C) (HIV) (assay: cell-based or functional assay).

Binder	IC50 (µg/ml) with constrains
B1	> 100 µg/mL
B2	> 100 µg/mL
B3	> 100 µg/mL
B4	> 100 µg/mL

These binders were tested against HIV Env of isolate ZM233M.PB6 (clade C) (HIV) (assay: cell-based or functional assay).

Binder	IC50 (µg/ml) with constrains
B1	0.001 µg/mL
B2	0.002 µg/mL
B3	0.002 µg/mL
B4	0.002 µg/mL
